Measured values as given in patent US20220281980A1 (Bristol-Myers Squibb, published 2022).
Where a chain is given by its changes, count along the chain named.

Columns and labels:
[1] = molecular target: T1, recombinant soluble human MICA*004 antigen (human, UniProt Q29983 24-307); experiment: SPR (Biacore T200, 37 C), antibody captured on anti-human Fc, antigen 100 and 10 nM
T1 construct: also called huIMICA-his allele *004
T1 chain: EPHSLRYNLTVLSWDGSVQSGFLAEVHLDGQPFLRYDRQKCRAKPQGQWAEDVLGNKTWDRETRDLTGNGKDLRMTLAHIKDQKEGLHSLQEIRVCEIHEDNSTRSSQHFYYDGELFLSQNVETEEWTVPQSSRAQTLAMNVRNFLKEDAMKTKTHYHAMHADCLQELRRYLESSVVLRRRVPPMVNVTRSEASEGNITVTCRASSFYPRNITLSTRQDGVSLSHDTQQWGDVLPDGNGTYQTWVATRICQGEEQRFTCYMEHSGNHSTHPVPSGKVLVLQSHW
Protocol: (§1) Anti-MICA/B antibodies were captured to α-human Fc surfaces. MICA allele antigens were injected at high and low nanomolar concentrations (500 nM and 50 nM, except indicated otherwise). The results for antibodies MICA.36 and MICA.38 (MICA.2 with a Ser inserted between residues 95 and 96 in the light chain) are shown in Table 2 below.

[2] = molecular target: T2, recombinant soluble human MICA*008 antigen (human, UniProt Q29983 24-307); experiment: as above
T2 construct: also called huIMICA-his allele *008; recombinant soluble MICA (allele 8)
T2 chain: T1 chain with V122L, S175G, R181T, T213I, S215T, T216W, Q251R
Protocol: as §1

[3] = molecular target: T3, recombinant soluble human MICA*009 antigen (human, UniProt Q29983 24-307); experiment: as above
T3 construct: also called huIMICA-his allele *009
T3 chain: T1 chain with V122L, R181T, S215T, T216W
Protocol: as §1

[4] = molecular target: T4, recombinant soluble human MICA*002 antigen (human, UniProt Q29983 24-307); experiment: SPR (Biacore T200, 37 C), antibody captured on anti-human Fc, antigen 500 and 50 nM
T4 construct: also called huIMICA-his allele *002
T4 chain: T1 chain with W14G, Y36C, V122L, V129M, E173K, S175G, R181T, S206G, R210W, T216W
Protocol: as §1

[5] = molecular target: T1, recombinant soluble human MICA*004 …; experiment: as above
Protocol: as §1

[6] = molecular target: T2, recombinant soluble human MICA*008 …; experiment: as above
Protocol: as §1

[7] = molecular target: T3, recombinant soluble human MICA*009 …; experiment: as above
Protocol: as §1

[8] = molecular target: T1, recombinant soluble human MICA*004 …; experiment: SPR (Biacore T200, 37 C), antibody captured on anti-human Fc, range over both antigen concentration sets
Protocol: as §1

[9] = molecular target: T2, recombinant soluble human MICA*008 …; experiment: as above
Protocol: as §1

[10] = molecular target: T3, recombinant soluble human MICA*009 …; experiment: as above
Protocol: as §1

koff [1]: 0.000637 s⁻¹
kon [1]: 46200 M⁻¹ s⁻¹
koff [2]: 0.000606 s⁻¹
kon [2]: 120000 M⁻¹ s⁻¹
koff [3]: 0.000642 s⁻¹
kon [3]: 54100 M⁻¹ s⁻¹
Kd [4]: > 250 nM
koff [4]: 0.0161 s⁻¹
kon [4]: 28600 M⁻¹ s⁻¹
koff [5]: 0.000591 s⁻¹
kon [5]: 95200 M⁻¹ s⁻¹
koff [6]: 0.000565 s⁻¹
kon [6]: 140000 M⁻¹ s⁻¹
koff [7]: 0.000603 s⁻¹
kon [7]: 70100 M⁻¹ s⁻¹
Kd [8]: 6.2 to 13.8 nM
Kd [9]: 4 to 5.1 nM
Kd [10]: 8.6 to 11.9 nM
B1: MICA.36 hIgG1 (antibody)
heavy: not shown
light: AIQLTQSPSSLSASVGDRVTITCRASQGISSALAWYQQKPGKVPKSLIYDASSLESGVPSRFSGSGSGTDFTLTISSLQPEDFATYYCQQFNSYPITFGQGTRLEIKRTVAAPSVFIFPPSDEQLKSGTASVVCLLNNFYPREAKVQWKVDNALQSGNSQESVTEQDSKDSTYSLSSTLTLSKADYEKHKVYACEVTHQGLSSPVTKSFNRGEC
notes: Recombinant form of hybridoma 19G6 with wild type human IgG1 (236G), fucosylated; also called MICA.36hIgGl; MICA.36 IgG1
